# B1: His-tagged cyclophilin B (CypB), recombinant, purified from Drosophila S2 cells (enzyme, not shown: small tags and cut ends)
# chain: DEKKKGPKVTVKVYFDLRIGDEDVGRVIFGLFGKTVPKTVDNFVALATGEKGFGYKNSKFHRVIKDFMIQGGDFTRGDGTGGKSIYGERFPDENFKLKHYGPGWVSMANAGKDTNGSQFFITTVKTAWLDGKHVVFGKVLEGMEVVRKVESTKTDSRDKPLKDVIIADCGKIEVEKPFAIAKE
# Biological target: prolactin (PRL), human, untagged (serum PRL; PRL used in cell cultures) (human, UniProt P01229)
# Test: cell-based or functional assay
binder,measurement,value
B1,PRL-driven growth of Nb2 cells (3H-thymidine),≤ 8 fold

# From US7105306 (University of Pennsylvania, dated 2006)
